Source: patent US6670328 (INSTITUT PASTEUR DE LILLE, dated 2003)

T1: CD2 on Jurkat cells (human, UniProt P06729 25-351)
T1 construct: whole, on cells
T1 sequence (looked up): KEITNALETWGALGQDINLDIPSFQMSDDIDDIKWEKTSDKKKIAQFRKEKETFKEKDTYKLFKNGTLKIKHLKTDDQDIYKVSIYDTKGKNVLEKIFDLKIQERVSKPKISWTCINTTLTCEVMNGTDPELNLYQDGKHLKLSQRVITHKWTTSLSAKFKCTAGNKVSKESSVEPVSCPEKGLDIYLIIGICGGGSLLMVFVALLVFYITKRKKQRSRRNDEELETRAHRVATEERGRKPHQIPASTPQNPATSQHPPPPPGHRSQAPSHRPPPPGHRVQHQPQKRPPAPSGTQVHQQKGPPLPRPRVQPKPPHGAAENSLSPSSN


Legend:
[1] = target: T2, LFA-1 (heterodimeric CD11a/CD18) (human, UniProt P20701 26-1170; P05107 23-769); assay: competition on Jurkat cells at 4 C; HI111 at 1 microg/mL against 35S-labelled 3D-ICAM-1/Fc
T2 construct: whole, on cells; Endogenous LFA-1 on Jurkat cells (and on human PBMC) in the cell assays; In the BIAcore assay and the co-immunoprecipitations it was the whole heterodimer from octylthioglucoside lysates of Jurkat cells; also called LFA-1 molecule; LFA-1 counter receptor
T2 sequence (P20701 26-1170, chain 1 of 2): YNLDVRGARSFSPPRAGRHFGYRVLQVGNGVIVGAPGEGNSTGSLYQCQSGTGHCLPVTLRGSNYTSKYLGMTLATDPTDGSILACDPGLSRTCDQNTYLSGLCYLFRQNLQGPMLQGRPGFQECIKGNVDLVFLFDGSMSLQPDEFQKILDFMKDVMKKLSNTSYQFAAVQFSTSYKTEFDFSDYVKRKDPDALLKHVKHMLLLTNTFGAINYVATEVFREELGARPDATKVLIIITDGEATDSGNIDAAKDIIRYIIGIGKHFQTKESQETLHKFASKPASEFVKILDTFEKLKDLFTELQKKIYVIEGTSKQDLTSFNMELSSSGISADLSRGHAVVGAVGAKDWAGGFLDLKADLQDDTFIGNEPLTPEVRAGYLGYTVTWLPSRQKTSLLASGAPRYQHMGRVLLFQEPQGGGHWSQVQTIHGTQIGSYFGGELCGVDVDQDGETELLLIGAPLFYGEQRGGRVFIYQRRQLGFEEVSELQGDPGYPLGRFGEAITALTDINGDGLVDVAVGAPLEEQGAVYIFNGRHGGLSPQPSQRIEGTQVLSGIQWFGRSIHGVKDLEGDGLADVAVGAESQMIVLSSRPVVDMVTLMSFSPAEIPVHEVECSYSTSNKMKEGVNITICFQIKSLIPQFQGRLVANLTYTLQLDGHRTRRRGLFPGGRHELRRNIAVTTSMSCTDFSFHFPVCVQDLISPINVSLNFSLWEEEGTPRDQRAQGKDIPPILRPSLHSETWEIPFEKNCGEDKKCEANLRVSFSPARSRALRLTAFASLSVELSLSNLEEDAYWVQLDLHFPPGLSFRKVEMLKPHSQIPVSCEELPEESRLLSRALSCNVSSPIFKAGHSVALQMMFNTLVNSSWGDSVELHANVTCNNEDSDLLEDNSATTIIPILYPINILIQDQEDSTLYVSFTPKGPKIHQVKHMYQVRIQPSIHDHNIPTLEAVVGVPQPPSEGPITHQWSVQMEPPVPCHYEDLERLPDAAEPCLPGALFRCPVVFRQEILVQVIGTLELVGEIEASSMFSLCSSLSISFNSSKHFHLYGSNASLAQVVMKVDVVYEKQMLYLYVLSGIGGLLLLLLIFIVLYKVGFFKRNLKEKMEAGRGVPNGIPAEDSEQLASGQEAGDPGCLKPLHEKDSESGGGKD
T2 sequence (P05107 23-769, chain 2 of 2): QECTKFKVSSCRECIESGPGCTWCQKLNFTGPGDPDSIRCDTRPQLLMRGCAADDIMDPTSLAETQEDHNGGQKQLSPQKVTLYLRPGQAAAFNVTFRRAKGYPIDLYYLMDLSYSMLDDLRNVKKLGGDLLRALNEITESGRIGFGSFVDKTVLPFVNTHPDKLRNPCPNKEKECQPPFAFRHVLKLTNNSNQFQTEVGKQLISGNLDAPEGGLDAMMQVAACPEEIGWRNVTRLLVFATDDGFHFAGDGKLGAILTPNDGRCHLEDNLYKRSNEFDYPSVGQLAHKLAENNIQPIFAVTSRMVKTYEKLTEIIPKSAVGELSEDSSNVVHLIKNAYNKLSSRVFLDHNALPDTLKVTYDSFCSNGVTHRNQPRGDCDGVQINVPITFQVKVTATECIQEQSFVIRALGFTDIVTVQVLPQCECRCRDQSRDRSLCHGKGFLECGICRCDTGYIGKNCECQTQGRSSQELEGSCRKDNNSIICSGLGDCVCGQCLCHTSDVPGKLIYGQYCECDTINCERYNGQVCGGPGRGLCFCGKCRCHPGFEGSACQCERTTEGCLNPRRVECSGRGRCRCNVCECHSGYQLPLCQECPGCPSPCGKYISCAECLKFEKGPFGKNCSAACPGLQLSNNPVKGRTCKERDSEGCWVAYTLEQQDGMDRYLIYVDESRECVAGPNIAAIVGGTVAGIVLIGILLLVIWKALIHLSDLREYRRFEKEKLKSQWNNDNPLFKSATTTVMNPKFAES

[2] = target: T2, LFA-1 (heterodimeric CD11a/CD18); assay: BIAcore, purified ESM-1 (5 concentrations, 50 to 300 nM) over LFA-1 from Jurkat lysate captured by immobilized HI111, 25 C, PBS with 1 mM MgCl2 and 1 mM MnCl2
Description: LFA-1 molecules from the Jurkat lysates could only be fixed by immuno-affinity procedure. 200 millions of Jurkat cells were lysed in 2 mL of lysis buffer (PBS, 1 mM MgCl2, 1 mM MnCl2, complete anti-proteases cocktail EDTA-free and 5 mM octylthioglucoside) for 30 min at 4° C. After removal of insoluble material by centrifugation and incubation in a sonication bath, the lysate was injected at a flow rate of 5 microL/min for 30 min at 25° C. in order to immobilize approximatively 1500 RU of LFA-1 molecules. Next, CD11a mAb (G43-25B), CD18 mAb and purified ESM-1 were diluted in running buffer (PBS, 1 mM MgCl2, 1 mM MnCl2) and injected at a flow rate of 5 microL/min for 5 min at 25° C. The association rate constant (ka) and the dissociation rate constant (kd) were fitted calculated according to the BIAevaluation software version 3.1 provided by the manufacturer. The affinity constant was calculated from the equation Kd=kd/ka.
To better define the interaction between LFA-1 and ESM-1, a real-time observation by BIAcore analysis was carried out. Sensor chip was filled with detergent lysates of Jurkat cells in order to capture functional LFA-1 molecules. […] The binding of heterodimeric LFA-1 to mAb coated chip was consistently detected. […] No interaction was detected between the mAb coated surface or control surface and ESM-1 at the highest concentration used in this experiment (data not shown).

CD2 on Jurkat cells = target: T1, CD2 on Jurkat cells; assay: co-immunoprecipitation with anti-CD2 mAb from lysates of Jurkat cells incubated with 300 ng/mL ESM-1; ESM-1 ELISA of eluate
Description: (§1) FIGS. 17A–B: An anti-CD11a mAb coimmunoprecipitates ESM-1 with LFA-1 and increases ESM-1 binding to Jurkat cells. A. Coimmunoprecipitation of ESM-1 with LFA-1 : Jurkat cells were incubated with ESM-1 for 1 hour at 4° C. and immunoprecipitations were done with different mAbs according to the procedure previously described (none, anti-ESM-1 (MEC15), anti-CD3, anti-CD11a (1), ie clone HI111, anti-CD11a (2), ie clone G43-25B anti-CD18, anti-CD44, anti-CD2). Beads were washed and eluted. ESM-1 contents from eluates were analyzed by a specific ELISA. B. Activation of the binding of ESM-1 by an anti-CD11a mAb: Jurkat cells were firstly incubated in binding medium with different mAbs (none, anti-CD11a (1), anti-CD11a (2), IgG control) for 1 h at room temperature and secondly with ESM-1 for 1 h at 4° C. Cells were washed and lysed. ESM-1 was quantified by a specific ELISA in lysates (n=5).

[3] = target: T3, 3D-ICAM-1/Fc chimeric protein (three first extracellular domains of ICAM-1 fused to the Fc fragment of human … (human, UniProt P05362 28-311, limits assumed, 35S methionine metabolic label in the ICAM-1 binding assays)); assay: coprecipitation
T3 construct: domain: three first extracellular domains of ICAM-1; Expressed in 293 cells and purified on an anti-human Fc agarose column; also called soluble ICAM-1; soluble ICAM-1/Fc; not shown: Fc fragment of human IgG1
T3 sequence (P05362 28-311 limits assumed, stated change not applied): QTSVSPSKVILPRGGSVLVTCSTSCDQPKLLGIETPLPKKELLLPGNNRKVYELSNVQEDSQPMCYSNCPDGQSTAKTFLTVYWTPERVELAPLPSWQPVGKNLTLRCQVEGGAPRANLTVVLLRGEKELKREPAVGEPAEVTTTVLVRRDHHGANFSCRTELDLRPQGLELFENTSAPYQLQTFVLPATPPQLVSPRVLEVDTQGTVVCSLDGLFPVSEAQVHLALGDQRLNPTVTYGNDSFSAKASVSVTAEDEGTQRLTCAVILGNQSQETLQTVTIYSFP

[4] = target: T2, LFA-1 (heterodimeric CD11a/CD18); assay: BIAcore, from the ratio of the rate constants; ESM-1 over LFA-1 captured by immobilized HI111
Description: The affinity constant was calculated from the equation Kd=kd/ka.
To better define the interaction between LFA-1 and ESM-1, a real-time observation by BIAcore analysis was carried out. Sensor chip was filled with detergent lysates of Jurkat cells in order to capture functional LFA-1 molecules. Specific binding of the heterodimeric form of LFA-1 to the anti-CD11a mAb coupled censorship was observed. In this assay, anti-CD11a mAb (HI111) was immobilized on the surface of the carboxymethyl 5 sensor chip as described in Materials and Methods. The binding of heterodimeric LFA-1 to mAb coated chip was consistently detected. The presence of both CD11a chain and CD18 chain was checked by injecting either another anti-CD11a mAb (G43-25B), or an anti-CD18 mAb in the LFA-1 captured channel. As reported in FIG. 18A, LFA-1 was strongly captured under its heterodimeric form, which was essential to keep functionality of LFA-1. Next, we have also examined the interaction of LFA-1 and purified human ESM-1 by BIAcore biosensor. […] No interaction was detected between the mAb coated surface or control surface and ESM-1 at the highest concentration used in this experiment (data not shown). Purified ESM-1 was then injected at indicated concentrations to the LFA-1 captured surface, and the response (in resonance units) versus time (in seconds) was recorded. […]

CD44 on Jurkat cells = target: T4, CD44 on Jurkat cells (human, UniProt P16070 21-742); assay: co-immunoprecipitation with anti-CD44 mAb from lysates of Jurkat cells incubated with 300 ng/mL ESM-1; ESM-1 ELISA of eluate
T4 construct: whole, on cells
T4 sequence (P16070 21-742): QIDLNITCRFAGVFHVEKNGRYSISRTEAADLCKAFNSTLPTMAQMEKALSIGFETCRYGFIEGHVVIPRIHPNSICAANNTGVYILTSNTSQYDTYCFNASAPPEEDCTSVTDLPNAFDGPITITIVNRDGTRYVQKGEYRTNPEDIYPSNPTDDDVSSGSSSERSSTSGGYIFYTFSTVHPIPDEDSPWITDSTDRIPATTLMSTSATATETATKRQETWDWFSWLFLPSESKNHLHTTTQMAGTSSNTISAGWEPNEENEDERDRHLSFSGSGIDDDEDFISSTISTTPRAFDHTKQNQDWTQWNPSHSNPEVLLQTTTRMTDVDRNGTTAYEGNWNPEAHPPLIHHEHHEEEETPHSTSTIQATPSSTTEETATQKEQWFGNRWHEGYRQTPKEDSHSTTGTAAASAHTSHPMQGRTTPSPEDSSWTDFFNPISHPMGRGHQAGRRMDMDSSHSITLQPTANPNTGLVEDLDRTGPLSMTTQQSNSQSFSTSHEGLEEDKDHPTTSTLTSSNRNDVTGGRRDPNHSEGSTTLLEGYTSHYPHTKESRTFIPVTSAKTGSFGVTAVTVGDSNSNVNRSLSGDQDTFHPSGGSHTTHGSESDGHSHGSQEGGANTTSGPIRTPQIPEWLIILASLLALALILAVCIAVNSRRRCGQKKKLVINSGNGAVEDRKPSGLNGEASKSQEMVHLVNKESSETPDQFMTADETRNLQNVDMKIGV
Description: as §1

| Molecule | labelled ICAM-1 still bound (cpm) [1] [cpm] | koff [2] [s⁻¹] | kon [2] [M⁻¹ s⁻¹] | binding result (CD2 on Jurkat cells) | binding result [3] | Kd [4] [nM] | binding result (CD44 on Jurkat cells) |
| --- | --- | --- | --- | --- | --- | --- | --- |
| anti-CD11a mAb clone HI111 (antibody) | 837 | – | – | – | – | – | – |
| secreted ESM-1 protein (Endothelial Cell Specific Molecule-1), purified wild-type form (ligand, The secreted form runs at about 50 kD and is described as glycosylated (a proteoglycan); also called ESM/WT; extracellular ESM-1) WSNNYAVDCPQHCDSSECKSSPRCKRTVLDDCGCCRVCAAGRGETCYRTVSGMDGMKCGPCLRCQPSNCEDPFGEEFGICKDCPYGTFGMDCRETCNCQSCICDRGTGKCLKFPFFQYSVTKSSNRFVSLTEHDMASGDGNIVREEVVKENAAGSPVMRKWLNPR | – | 0.000825 | 44100 | no binding | no binding | 18.7 | no binding |
